According to the supplement of paper PMC10126150:
± gives the standard deviation of the averaged measurements.

Test system: ATP
Experiment: switch fluorescence ratio, 500 uM ATP over buffer (Cy3 cluster intensity, sum of 5 cycles each) (fold (ratio)); higher = stronger signal-on switching upon ATP binding; sequences stand for … in TCGTCGGCAGCGTCAGATGTGTATAAGAGACAGTTTTTTTTTTTTTTTTTTTTTTTTT…TC
Conditions: aptamer strand: ATP DNA aptamer (quencher-CACCTGGGGGAGTATTGCGGAGGAAGG + anchor), 100 nM annealed; ATP concentration: 500 uM
In short: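 Per cluster, summed Cy3 intensity from the target cycles was divided by that from the buffer cycles to give the fluorescence ratio, then averaged per switch-domain sequence. Clusters outside 100-1000 RFU were excluded. The Cy3-labelled switching-strand clusters, on a modified Illumina MiSeq flow-cell, were annealed to 100 nM quencher-labelled ATP aptamer and imaged in selection buffer, then after 15 min with 500 uM ATP at 22 °C, for five cycles with NaOH stripping and re-annealing between them.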
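Also: ATP exposure 15 min at 22 °C before imaging.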

AAGCTACGTG
switch fluorescence ratio: 1.05 ± 0.013

AAGCTATCGG
switch fluorescence ratio: 0.994 ± 0.016

AAGCTCCTTT
switch fluorescence ratio: 0.968 ± 0.011

AAGCTCTGAG
switch fluorescence ratio: 1.03 ± 0.017

AAGCTCTTGT
switch fluorescence ratio: 1.01 ± 0.03

AAGCTGTAGC
switch fluorescence ratio: 1.03 ± 0.048

AAGGAAAAGT
switch fluorescence ratio: 1.01 ± 0.035

AAGGAAAATT
switch fluorescence ratio: 0.973 ± 0.02

AAGGAAAGGT
switch fluorescence ratio: 1.061 ± 0.0073

AAGGAAATGT
switch fluorescence ratio: 1 ± 0.014

AAGGAAATTA
switch fluorescence ratio: 1.01 ± 0.058

AAGGAACGGC
switch fluorescence ratio: 0.963 ± 0.043

AAGGAAGCTT
switch fluorescence ratio: 1.02 ± 0.1

AAGGAATACA
switch fluorescence ratio: 1.07 ± 0.041

AAGGAGGCAA
switch fluorescence ratio: 1.255 ± 0.0085

AAGGAGGGAC
switch fluorescence ratio: 0.982 ± 0.011

AAGGAGGGGA
switch fluorescence ratio: 0.978 ± 0.02

AAGGAGGGTT
switch fluorescence ratio: 0.984 ± 0.025

AAGGAGGTCC
switch fluorescence ratio: 0.97 ± 0.066

AAGGAGGTTT
switch fluorescence ratio: 1.01 ± 0.031

AAGGAGTCGG
switch fluorescence ratio: 0.987 ± 0.044

AAGGATAGTT
switch fluorescence ratio: 1.01 ± 0.013

AAGGATCTAC
switch fluorescence ratio: 1.01 ± 0.027

AAGGATCTGG
switch fluorescence ratio: 0.977 ± 0.026

AAGGATGGTG
switch fluorescence ratio: 0.957 ± 0.069

AAGGCAAAAT
switch fluorescence ratio: 1.04 ± 0.029

AAGGCATGAT
switch fluorescence ratio: 1.0128 ± 0.00018

AAGGCCCCGT
switch fluorescence ratio: 1.02 ± 0.016

AAGGCCGGCG
switch fluorescence ratio: 1.01 ± 0.017

AAGGCCTTGA
switch fluorescence ratio: 0.988 ± 0.049

AAGGCGAGGG
switch fluorescence ratio: 1.01 ± 0.015

AAGGCGGCAC
switch fluorescence ratio: 1.05 ± 0.02

AAGGCGGGGG
switch fluorescence ratio: 0.986 ± 0.016

AAGGCGTAG
switch fluorescence ratio: 0.984 ± 0.1

AAGGCTAATG
switch fluorescence ratio: 0.953 ± 0.011

AAGGCTTAAT
switch fluorescence ratio: 1.006 ± 0.0063

AAGGGAATGG
switch fluorescence ratio: 1.04 ± 0.046

AAGGGAGAGC
switch fluorescence ratio: 1.03 ± 0.06

AAGGGAGAGG
switch fluorescence ratio: 0.985 ± 0.013

AAGGGAGGAA
switch fluorescence ratio: 1.02 ± 0.012

AAGGGATTAG
switch fluorescence ratio: 1.01 ± 0.037

AAGGGATTTT
switch fluorescence ratio: 0.999 ± 0.062

AAGGGCAGTT
switch fluorescence ratio: 0.97609 ± 0.00084

AAGGGCATTA
switch fluorescence ratio: 0.9891 ± 0.0096

AAGGGCGGGG
switch fluorescence ratio: 1.01 ± 0.019

AAGGGGAATC
switch fluorescence ratio: 1.01 ± 0.024

AAGGGGACGG
switch fluorescence ratio: 1 ± 0.03

AAGGGGACTC
switch fluorescence ratio: 0.974 ± 0.04

AAGGGGATAA
switch fluorescence ratio: 0.99 ± 0.045

AAGGGGATGT
switch fluorescence ratio: 1.03 ± 0.032

AAGGGGATTC
switch fluorescence ratio: 1.07 ± 0.012

AAGGGGCACA
switch fluorescence ratio: 1.0522 ± 0.00079

AAGGGGCATG
switch fluorescence ratio: 1.001 ± 0.0025

AAGGGGCGGA
switch fluorescence ratio: 0.97 ± 0.016

AAGGGGGTAT
switch fluorescence ratio: 0.999 ± 0.043

AAGGGGTACA
switch fluorescence ratio: 1.01 ± 0.02

AAGGGGTCGG
switch fluorescence ratio: 1 ± 0.036

AAGGGGTCT
switch fluorescence ratio: 0.992 ± 0.024

AAGGGGTTAA
switch fluorescence ratio: 1.03 ± 0.022

AAGGGGTTTG
switch fluorescence ratio: 0.969 ± 0.032

AAGGGTAAGT
switch fluorescence ratio: 1.005 ± 0.0023

AAGGGTAATG
switch fluorescence ratio: 0.9875 ± 0.0042

AAGGGTACCT
switch fluorescence ratio: 1.018 ± 0.0077

AAGGGTCAGG
switch fluorescence ratio: 1.02 ± 0.017

AAGGGTCCCG
switch fluorescence ratio: 0.9735 ± 0.0027

AAGGGTCGCA
switch fluorescence ratio: 1.03 ± 0.036

AAGGGTCTAA
switch fluorescence ratio: 0.978 ± 0.037

AAGGGTGCTT
switch fluorescence ratio: 1.018 ± 0.006

AAGGGTGTTG
switch fluorescence ratio: 1.01 ± 0.017

AAGGGTTATT
switch fluorescence ratio: 1.15 ± 0.16

AAGGGTTCAC
switch fluorescence ratio: 0.9963 ± 0.0031

AAGGGTTCCG
switch fluorescence ratio: 1.01 ± 0.047

AAGGGTTCGG
switch fluorescence ratio: 1.03 ± 0.026

AAGGGTTGG
switch fluorescence ratio: 0.99 ± 0.015

AAGGGTTGGT
switch fluorescence ratio: 0.991 ± 0.028

AAGGTAACAA
switch fluorescence ratio: 1.01 ± 0.051

AAGGTCACGC
switch fluorescence ratio: 1.01 ± 0.024

AAGGTCAGCT
switch fluorescence ratio: 0.991 ± 0.016

AAGGTCGCTG
switch fluorescence ratio: 0.9861 ± 0.00072

AAGGTCGGCC
switch fluorescence ratio: 0.966 ± 0.017

AAGGTCGTTT
switch fluorescence ratio: 0.9768 ± 0.003

AAGGTCTAAC
switch fluorescence ratio: 1.012 ± 0.0067

AAGGTCTGTG
switch fluorescence ratio: 0.993 ± 0.014

AAGGTGGAAG
switch fluorescence ratio: 1.003 ± 0.0046

AAGGTGGATA
switch fluorescence ratio: 1.11 ± 0.032

AAGGTGGTGG
switch fluorescence ratio: 1.04 ± 0.0016

AAGGTTACGT
switch fluorescence ratio: 1.022 ± 0.0072

AAGGTTAGTA
switch fluorescence ratio: 0.9924 ± 0.007

AAGGTTCATA
switch fluorescence ratio: 1.01 ± 0.044

AAGGTTCTAG
switch fluorescence ratio: 0.9895 ± 0.0026

AAGGTTGAGG
switch fluorescence ratio: 0.973 ± 0.034

AAGGTTGGG
switch fluorescence ratio: 0.989 ± 0.014

AAGGTTGGGA
switch fluorescence ratio: 0.962 ± 0.039

AAGGTTTAAA
switch fluorescence ratio: 0.982 ± 0.032

AAGGTTTCC
switch fluorescence ratio: 1 ± 0.049

AAGGTTTTGG
switch fluorescence ratio: 1.15 ± 0.24

AAGTAGACTG
switch fluorescence ratio: 0.996 ± 0.11

AAGTAGGTGC
switch fluorescence ratio: 1.13 ± 0.02

AAGTAGTGGT
switch fluorescence ratio: 0.979 ± 0.025

AAGTATAATA
switch fluorescence ratio: 1.01 ± 0.035

AAGTATCGTT
switch fluorescence ratio: 0.999 ± 0.011

AAGTATGTCT
switch fluorescence ratio: 1 ± 0.039

AAGTATTGTT
switch fluorescence ratio: 1 ± 0.019

AAGTCAAGTA
switch fluorescence ratio: 0.9581 ± 0.0054

AAGTCGGGGC
switch fluorescence ratio: 1 ± 0.038

AAGTCTGTCT
switch fluorescence ratio: 0.998 ± 0.054

AAGTCTTTGG
switch fluorescence ratio: 0.9599 ± 0.0072

AAGTGAAGTT
switch fluorescence ratio: 1.002 ± 0.004

AAGTGAATTA
switch fluorescence ratio: 1.0037 ± 0.00073

AAGTGACAGG
switch fluorescence ratio: 1 ± 0.022

AAGTGATTGT
switch fluorescence ratio: 0.994 ± 0.028

AAGTGCAAGC
switch fluorescence ratio: 1.04 ± 0.027

AAGTGCACGG
switch fluorescence ratio: 1 ± 0.036

AAGTGGAAAT
switch fluorescence ratio: 0.9962 ± 0.0019

AAGTGGAATG
switch fluorescence ratio: 1.02 ± 0.03

AAGTGGGAAC
switch fluorescence ratio: 1.02 ± 0.016

AAGTGGGCCC
switch fluorescence ratio: 0.983 ± 0.013

AAGTGGGCTG
switch fluorescence ratio: 0.981 ± 0.023

AAGTGGGGAG
switch fluorescence ratio: 1 ± 0.024

AAGTGGGTCG
switch fluorescence ratio: 0.9408 ± 0.0023

AAGTGGGTGG
switch fluorescence ratio: 1.02 ± 0.021

AAGTGGTAAG
switch fluorescence ratio: 0.996 ± 0.034

AAGTGGTACA
switch fluorescence ratio: 0.968 ± 0.049

AAGTGTAAAA
switch fluorescence ratio: 1 ± 0.038

AAGTGTCAGT
switch fluorescence ratio: 0.977 ± 0.065

AAGTGTCATT
switch fluorescence ratio: 0.9999 ± 0.0028

AAGTGTGCCT
switch fluorescence ratio: 0.983 ± 0.01

AAGTGTGGGG
switch fluorescence ratio: 1 ± 0.025

AAGTGTGGTA
switch fluorescence ratio: 0.991 ± 0.018

AAGTGTGTTC
switch fluorescence ratio: 0.999 ± 0.016

AAGTGTGTTT
switch fluorescence ratio: 1 ± 0.031

AAGTGTTAGC
switch fluorescence ratio: 0.995 ± 0.022

AAGTTAAGGC
switch fluorescence ratio: 1.02 ± 0.013

AAGTTAAGGT
switch fluorescence ratio: 1.005 ± 0.002

AAGTTAGGGT
switch fluorescence ratio: 0.999 ± 0.021

AAGTTAGTGG
switch fluorescence ratio: 1.01 ± 0.04

AAGTTATATG
switch fluorescence ratio: 0.987 ± 0.0099

AAGTTATGGG
switch fluorescence ratio: 1 ± 0.023

AAGTTCATAT
switch fluorescence ratio: 0.965 ± 0.015

AAGTTGAAAA
switch fluorescence ratio: 1.004 ± 0.0028

AAGTTGAATA
switch fluorescence ratio: 0.985 ± 0.021

AAGTTGATGC
switch fluorescence ratio: 1.011 ± 0.0027

AAGTTGCAGC
switch fluorescence ratio: 1 ± 0.025

AAGTTGCTGT
switch fluorescence ratio: 1.02 ± 0.063

AAGTTGGCAT
switch fluorescence ratio: 0.977 ± 0.04

AAGTTGGGCA
switch fluorescence ratio: 0.969 ± 0.039

AAGTTGGGTG
switch fluorescence ratio: 1 ± 0.025

AAGTTGGTTA
switch fluorescence ratio: 0.991 ± 0.026

AAGTTGTAAT
switch fluorescence ratio: 1.014 ± 0.0013

AAGTTGTGCG
switch fluorescence ratio: 0.986 ± 0.029

AAGTTGTTGA
switch fluorescence ratio: 1 ± 0.028

AAGTTTAAAT
switch fluorescence ratio: 0.999 ± 0.02

AAGTTTAAGT
switch fluorescence ratio: 0.989 ± 0.013

AAGTTTAATT
switch fluorescence ratio: 1.02 ± 0.012

AAGTTTAGTC
switch fluorescence ratio: 1.03 ± 0.034

AAGTTTATAA
switch fluorescence ratio: 1 ± 0.015

AAGTTTATGC
switch fluorescence ratio: 0.977 ± 0.025

AAGTTTGAAT
switch fluorescence ratio: 0.978 ± 0.013

AAGTTTGCTA
switch fluorescence ratio: 1.01 ± 0.031

AAGTTTTAAG
switch fluorescence ratio: 1 ± 0.021

AAGTTTTCTC
switch fluorescence ratio: 0.951 ± 0.0028

AAGTTTTTGC
switch fluorescence ratio: 1.01 ± 0.019

AAGTTTTTGT
switch fluorescence ratio: 0.9997 ± 0.0081

AATAAACAGA
switch fluorescence ratio: 1.02 ± 0.017

AATAAAGCCT
switch fluorescence ratio: 1.15 ± 0.29

AATAAAGGGA
switch fluorescence ratio: 0.9841 ± 0.0045

AATAAATCGT
switch fluorescence ratio: 0.998 ± 0.024

AATAAATT
switch fluorescence ratio: 0.9585 ± 0.0081

AATAAGCGCA
switch fluorescence ratio: 0.993 ± 0.037

AATAAGGGAT
switch fluorescence ratio: 1.01 ± 0.045

AATAAGGTTA
switch fluorescence ratio: 0.984 ± 0.022

AATAATATTA
switch fluorescence ratio: 0.975 ± 0.019

AATAATGTCG
switch fluorescence ratio: 1.02 ± 0.06

AATAATTACA
switch fluorescence ratio: 0.9987 ± 0.0094

AATAATTGGT
switch fluorescence ratio: 1.01 ± 0.012

AATACATTCT
switch fluorescence ratio: 1.05 ± 0.011

AATACCAAGA
switch fluorescence ratio: 0.9889 ± 0.0067

AATACGAATA
switch fluorescence ratio: 1.92 ± 1.2

AATACGGGCG
switch fluorescence ratio: 1.008 ± 0.0056

AATACTAAGG
switch fluorescence ratio: 1.04 ± 0.007

AATACTCGGG
switch fluorescence ratio: 1.07 ± 0.033

AATAGAGGGA
switch fluorescence ratio: 0.977 ± 0.045

AATAGCAGGC
switch fluorescence ratio: 1.06 ± 0.028

AATAGCGGAA
switch fluorescence ratio: 1 ± 0.015

AATAGCTATT
switch fluorescence ratio: 0.986 ± 0.023

AATAGGAGGC
switch fluorescence ratio: 1.05 ± 0.053

AATAGGCAAT
switch fluorescence ratio: 1.16 ± 0.034

AATAGGGAGG
switch fluorescence ratio: 0.979 ± 0.025

AATAGGGGAG
switch fluorescence ratio: 1 ± 0.037

AATAGGGGGT
switch fluorescence ratio: 0.996 ± 0.018

AATAGGGTGC
switch fluorescence ratio: 1.07 ± 0.045

AATAGGGTTT
switch fluorescence ratio: 0.967 ± 0.011

AATAGTATAG
switch fluorescence ratio: 0.966 ± 0.02

AATAGTGGTG
switch fluorescence ratio: 1 ± 0.022

AATAGTTTCA
switch fluorescence ratio: 1.01 ± 0.014

AATATAGAAG
switch fluorescence ratio: 0.984 ± 0.033

AATATAGAGA
switch fluorescence ratio: 1.01 ± 0.011

AATATAGGAC
switch fluorescence ratio: 0.972 ± 0.013

AATATAGGTA
switch fluorescence ratio: 1.02 ± 0.011

AATATAGTAT
switch fluorescence ratio: 0.998 ± 0.034
